According to the DeepSol protein solubility set:

Test: soluble on expression in E. coli; label from the status in PepcDB or PDB records

Row | Sequence | soluble on expression in E. coli
1 | MHTTSSPNETLSSWDSSARREQASKNNIYVTLSAKQHPRILQIYGGAYYNPKLERLLENIVRKLTVGLQNSYKSYSLTILNTQSVNAFALPNGSIYITRGMLTLANDSSEVAAILAHEIAHITANHGILRLQKKAELKTTERISSNLLSLSGEKIHKSIENKRKLAQFSRNQELQADSIALEMLKQAGYDPFSLPRFLQSMAAYSLFRSIPGSQNAPLGFLITHPTTPQRIRLAIEKAHKISSANTGNTDRDAFLKSIDGMIFGGSPHTGFVQNNQFIHPQLGITFSVPQNFIIENSAHTVWASGPDKIAIRFDAIPHPAEISASEYLQSGWLAGLDKSSVHPFIIQGLPGAHARARNAQWQFDVVVILFNNHVLRFLTAAPHDSQNFAEIAEKTVQSFRFLSSSQLKKLKPLRIRIVRVQKGESVASLAKKMQNIPHNEKLFRILNSLSPSQALQTGAAVKIITQLEHHHHHH | not soluble
2 | MKLRTKIKRVRDVELPKYAKTGDSGFDLVAAEDTVIWPGETKVVPTGLAFEIPPGYELQVRPRSGMTRNTKLRVVLGTVDSGYRGEVGVLVDNTEIPKATNMQAHVIEKGTRIAQGVIVPVITAHFEEVDELSDSERGSGGFGSTGVK | not soluble
3 | MTLDDDDYIKQMELQRKAFESQFGSLESMGFEDKTKNIRTEVDTRDSSGDEIDNSDHGSDFKDGTIESSNSSDEDSGNETAEENNQDSKPKTQPKVIRFNGPSDVYVPPSKKTQKLLRSGKTLTQINKKLESTEAKEEKEDETLEAENLQNDLELQQFLRESHLLSAFNNGGSGSTNSGVSLTLQSMGGGNDDGIVYQDDQVIGKARSRTLEMRLNRLSRVNGHQDKINKLEKVPMHIRRGMIDKHVKRIKKYEQEAAEGGIVLSKVKKGQFRKIESTYKKDIERRIGGSIKARDKEKATKRERGLKISSVGRSTRNGLIVSKRDIARISGGERSGKFNGKKKSRR | not soluble
4 | MAHHHHHHMPPLTLEQVLARSMRLPRKHMKHTATPMASNPAIGISTPLDNSLGRGDKSVAKLFSLIEKDEESTAAGRPFIHQSNNLIRNSHDLLTYLHTAKRMRAWEDALRSFAEVTKMLLINQTEEGDGVSLTLREGAEGAEGVTASVSHLALLLDTCASAKQWHLVEQIGEIFRSQSRQTLIDAVAVLANTKKETIGEGLYGWERALHFLQTRIPPEEQPVEAYNACIAACETALEWEGALAIVRSMGPNPLQNLDSKVFSGTTGIGVASAGSTVEGVSSSLGTEAREESVLATFPPPVPDVVTYATLISVLEQSGKEALASEVLQRLPPVEKEEITASYAALIHVWSEQKYRNHRRRF | not soluble
5 | MYEAKDYKSDQYVRWCPGCGDHAVVVTLQKAMAEIGIPPHQTAVMSGIGCSSRLPYYMNTYGFHTIHGRGAAIATGVKTANPELSVWLASGDGDSLAIGGNHFIHAVRRNIDINAVLFNNRIYGLTKGQYSPTSARGFVSKSSPYGTVEDPFIPAELVLGARGNFFARAIDVDMKTLQECFVASARHRGFAVTEVLVNCVIFNDGTHKDRSHKDIRADRTITLRHGEKMIFGANRDKGIVLEGLKLRAVTIGEDGYTLDDVLVHDKYEQDVTLHHLLAMMGYTDDSMPIALGVIRDVEAPCYDRAVEAQIEEIQQKNPIRKLHDLLIQGDVWEIK | not soluble
6 | MAHHHHHHMRSSQFLLSGLRRTAILMTISDEYIPRAFPVKSTTGLAGIAVEPLWKPKLLAAASELQAFLTSSDIPPESTYYNIAMTLVKRVNHGIKECQDDWCTLEKRYFWGWPVEYILQVTWRELETAQKWNEWRFWELDPEQVKKVAREDQNIGREGLGYNSPWEQVVREDFDKRKKALTQEEMAELKRMDTERMARETAAYKERKDRIRDDLEKARGDMLKKFLNKRFAVDKDLQRMQPGKRYSGKTADDLIAELKSSVENNPQKSDLGK | not soluble
7 | MEDIKSLLLQCPVLAGLPVEGINEAVQIVRARHFDEKALICSKGAQHSSLMVIAKGSVRVNSISSKGKEVTLMIFETGGWFGDNVFSPGMPRIFGATAHTDVTLLELPGDKFRQLLAKYPQSYPVILDLLSRRLWSAISVIEDDAIRGIEERIGRRLLLLAEYQHNRPISAQSCVVKVTREHIANMMGLTRQSVHKVLKKLENSNVLRLQYGSITILNPLKMEAYLKQLE | not soluble
8 | MVIMVNTEYIPGKRIVKVFGTIWGITVRSRGLGGNLVAGLRSLAGGEIKEYTKMLSDARNTAMERLQSAAEQIGANAVINVRFDSSDIGQVMTEIVAYGTAVLVE | soluble
9 | QDSLPDTKASGPAHSKEVPALTAVETGATNPLAPSDTVQTRHVVQRRSRSESTIESFFARGACVAIIEVDNEQPTTRAQKLFAMWRITYKDTVQLRRKLEFFTYSRFDMEFTFVVTANFTNANNGHALNQVYQIMYIPPGAPTPKSWDDYTWQTSSNPSIFYTYGAAPARISVPYVGLANAYSHFYDGFAKVPLKTDANDQIGDSLYSAMTVDDFGVLAVRVVNDHNPTKVTSKVRIYMKPKHVRVWCPRPPRAVPYYGPGVDYRNNLDPLSEKGLTTY | soluble
10 | AIASYCRQEGKDKIIFVTKEDHETPSSAELIADDPNDPFEEQGLILPNGDINWNCPCLGGMASGPCGEQFKSAFSCFHYSQEEIKGSDCLDQFRAMQECMQKYPELYPQEDDEDELEKEKQNKDEESSVTQSSDTKEESSS | soluble
11 | MSLSKSTFEIKNGHFYRNGKITPVLSGEMHYARIPHQYWRHRLQMMKGMGLNTVATYVFWNLHEPEPGKWDFTGDKNLAEFIKTAGEEGMMVILRPGPYVCAEWEFGGYPWWLQNVKGMEIRRDNPEFLKYTKAYIDRLYKEVGSLQCTKGGPIVMVQCENEFGSYVAQRKDIPLEEHRAYNAKIKQQLADAGFNVPLFTSDGSWLFEGGATPGALPTANGESDIENLKKVVDQYHDGKGPYMVAEFYPGWLSHWAEPFPQIGASGIARQTEKYLQNDVSFNFYMVHGGTNFGFTSGANYDKKRDIQPDMTSYDYDAPISEAGWVTPKYDSIRNVIKKYVKYTIPEAPAPNPVIEIPSIQLNKVADVLAFAEKQKPVSSDTPLTFEQLNQGYGYVLYTRHFNQPISGTLEIPGLRDYAVVYVDGEQVGVLNRNTKTYSMEIEVPFNATLQILVENMGRINYGSEIVHNTKGIISPVQIAGKEIVGGWDMYQLPMDEMPDLTKLKADTHKNVPSEVAKLKGCPVLYEGTFTLDKVGDTFMDMESWGKGIVFVNGVNIGRYWKVGPQQTLYVPGVWLKKGENKIVIFEQLNETPQTEVKTVKTPVLMKLKGEGHHHHHH | soluble
12 | AIALTYIILVLHLQNHVWEDVTVHNSSLPPLAIKHPECLGLLHQLERSTDVWIQHYCILKDGCLYFYASIRSTQASGGLYLQGYSVSEQTHGFEQPVIELKPSSEEFKTFYFCAENKTENQRWIAALKTSIKKWLPLDQAIQEFMSRPLEETRM | soluble
13 | MGSDKIHHHHHHMINENQHMTEREPSTRRIKSMQTASEVLRELQSQSEATLSDLCGNIDVAKSTLHTYLQTLVAEGFIDKSDGVYRLGLRFIPLGESVRNRIDLYQLGKEEVKRLAEETNEWVHLTVAYRSREVTLYEHNGGETVAVDYQRRTRESPQYLHCTATGKALLAYFDDDRVTETVATEGLVQQTEQTITDPDELREELEEIRARGYAVNDEEEIRGMRSVGAPIQDVDGTVCGAISVTAPKTRLSGDYLYNDLPELVMEAANIIEINLESAAASGE | not soluble
14 | GPGSMSLEGKVALITGAGSGFGEGMAKRFAKGGAKVVIVDRDKAGAERVAGEIGDAALAVAADISKEADVDAAVEAALSKFGKVDILVNNAGIGHKPQNAELVEPEEFDRIVGVNVRGVYLMTSKLIPHFKENGAKGQECVILNVASTGAGRPRPNLAWYNATKGWVVSVTKALAIELAPAKIRVVALNPVAGETPLLTTFMGEDSEEIRKKFRDSIPMGRLLKPDDLAEAAAFLCSPQASMITGVALDVDGGRSIGGRSI | soluble
15 | MGSDKIHHHHHHMNRLEIVNNISTNIERERIKLGMSQAQFAKALDMSLSTYKRIANGESSRIDVYTAYLIYKLTGRFSCELTGFNDDVINLVKRIKKLSKSQRILIDSIIDTELALSAYKDESCHTEDLISVLIPTGNMTDGMILDSYNVEKLDVSNYRKAFGDALHIGIRITSNHLHPVYNKGDILLISRNPIRDGDTGIFINAQNKRAYIRKLHQKNPCELTPINNYGETFYVDSDNVDDMSKWIKFGHVLCKVR | not soluble
16 | MSETVYTAKDYKSGQPRWCPGCGDHAFLNSLHKAMAELGVAPHNIAVISGIGCSSRLPYYVNTYGFHTIHGRAAAVATGAKVANPDLTIWQISGDGDGLAIGGNHFIHAVRRNIDLNMILLNNRIYGLTKGQYSPTSDRGFVSKSSPYGTVEDPFHPAELCFGARGRFFARCVAVDGPASVEVLKAAANHKGASVVEVLQNCVIFNDGTHESVATKEGRSKNAIYLEHGKPMLFGENKEFGLMQEGFGLKVVKLGENGVTEKDILIHNAHSMDNTLQLKLALMEGPDFPIALGVIRDVEAPTYNDAVAEQIDEVKAKKKYHNFQELLMTNETWEVK | not soluble
17 | MAVENITMPQLGESVTEGTISKWLVNVGDHVNKYDPLAEVMTDKVNAEVPSSFTGIVKELIAGEGDTLAVGEVVCVIQVEGADEVAATAVEEKTKEEPKAEVNTPEKAPKAKQPTDGKPRFSPAVLKLAGEHNVDLDLVEGTGANGRITRKDILKLVESGNIPQAGAVKKEEAVAAVVEARPEAPKAAPVAQKVEAAKPVSVPTMPGDIEIPVTGVRKAIAANMLRSKHEAPHAWMMIEVDVTNLVSYRNSIKGDFKKREGFNLTFFAFFVKAVAQALKEYPQINSMWAGDKIVQKKDINLSIAVATEDELFVPVIKHADEKTIKGIAREITELAGKVRTKSLKADEMQGGTFTINNTGSFGSVQSMGIINYPQAAILQVESIVKRPVIMENGMFGARDMVNLCLSLDHRVLDGLICGKFLGRVKEILENTSENNTSVY | not soluble
18 | MGSDKIHHHHHHMRIAIDPFMHRHLSLEELPRKVRELGYDWIEMSPRADFLEWFKAPRVFPQRMKEFKKALAAENVKIASLLPMYRWASNDETERKAAVKHWKRAIEIAVEMEIDTMNSEFGRGPHPDKGSCYCCHTGSMIEACEDAWWRSMEELVPVFERENIQLNIEPHPEDWCETLQPALDIIRTVNSKNVKFLYCAPHTFYFGDDTKAMLREAKDVLAHVHVGDTFNHKASSGLRYILNPPGTQARVHQHLNIGQGEVPWDDFFGTLAEIGFDGTMTACVFAWEDRADHSGKFMLSEMNRYIEKYWPK | not soluble
19 | MEDLDALWERYREAVRAGGNPQALYQEMVWPALLALWREKPRVYPFPQAFAVSVHTLGTSPEATALAILGAGAERVYVLHTPESARFLPRLRQDTGKDLYPVEIGKSDVEAIYREVKRLLEKHPEVPVALDLTSGTKAMSAGLAAAGFFFQRFYPKVRVVYVDNEDYDPELRRPRAGTEKLRILPNPHEALAEVDALFAKELYGKGEFGQAAAYFRGMVGRTGNQAYALYALLAEMYRAWRALDFGEALKAGRKLLGQLSQNVWLNHPLNARREALEAQVALLEAVDRFLKARDFALKEGVYGLARTLLHLAQEAKEEAAVLAALYAYRALELLLQERLALLGRRAEAPGLSPEEAEALRKALAELLGVLPEEVRLPAKLGLLDLLAFLRLKGDEALGRLSLAELRGLAGALKGRNSALLVHGFDVPSPKAVEGIARLAQGLLQDLEARTALGPLSPEPVPLGF | soluble
